Measured values: article PMC9813724

Target: LvPrx4 (endogenous, shrimp hemocytes) (Penaeus vannamei (endogenous in hemocytes))
Assay: Western blot after SDS-PAGE

stoichiometry N: 2
Substance: LvPrx4 (endogenous, shrimp hemocytes) (natural protein)
